Biological target: Bovine plasma fibronectin (bovine) (UniProt P07589)
Test: dynamic single-molecule force spectroscopy (AFM); fibronectin adsorbed on a gold surface; integrin or proteoglycan tethered by PEG to the AFM tip; PBS; trigger force 500 pN, no dwell; retraction speed varied; Bell-Evans fit of rupture force against ln(loading rate), fm = 10^7 s^-1 assumed

Sequence of Bovine plasma fibronectin (bovine) (P07589 33-2478): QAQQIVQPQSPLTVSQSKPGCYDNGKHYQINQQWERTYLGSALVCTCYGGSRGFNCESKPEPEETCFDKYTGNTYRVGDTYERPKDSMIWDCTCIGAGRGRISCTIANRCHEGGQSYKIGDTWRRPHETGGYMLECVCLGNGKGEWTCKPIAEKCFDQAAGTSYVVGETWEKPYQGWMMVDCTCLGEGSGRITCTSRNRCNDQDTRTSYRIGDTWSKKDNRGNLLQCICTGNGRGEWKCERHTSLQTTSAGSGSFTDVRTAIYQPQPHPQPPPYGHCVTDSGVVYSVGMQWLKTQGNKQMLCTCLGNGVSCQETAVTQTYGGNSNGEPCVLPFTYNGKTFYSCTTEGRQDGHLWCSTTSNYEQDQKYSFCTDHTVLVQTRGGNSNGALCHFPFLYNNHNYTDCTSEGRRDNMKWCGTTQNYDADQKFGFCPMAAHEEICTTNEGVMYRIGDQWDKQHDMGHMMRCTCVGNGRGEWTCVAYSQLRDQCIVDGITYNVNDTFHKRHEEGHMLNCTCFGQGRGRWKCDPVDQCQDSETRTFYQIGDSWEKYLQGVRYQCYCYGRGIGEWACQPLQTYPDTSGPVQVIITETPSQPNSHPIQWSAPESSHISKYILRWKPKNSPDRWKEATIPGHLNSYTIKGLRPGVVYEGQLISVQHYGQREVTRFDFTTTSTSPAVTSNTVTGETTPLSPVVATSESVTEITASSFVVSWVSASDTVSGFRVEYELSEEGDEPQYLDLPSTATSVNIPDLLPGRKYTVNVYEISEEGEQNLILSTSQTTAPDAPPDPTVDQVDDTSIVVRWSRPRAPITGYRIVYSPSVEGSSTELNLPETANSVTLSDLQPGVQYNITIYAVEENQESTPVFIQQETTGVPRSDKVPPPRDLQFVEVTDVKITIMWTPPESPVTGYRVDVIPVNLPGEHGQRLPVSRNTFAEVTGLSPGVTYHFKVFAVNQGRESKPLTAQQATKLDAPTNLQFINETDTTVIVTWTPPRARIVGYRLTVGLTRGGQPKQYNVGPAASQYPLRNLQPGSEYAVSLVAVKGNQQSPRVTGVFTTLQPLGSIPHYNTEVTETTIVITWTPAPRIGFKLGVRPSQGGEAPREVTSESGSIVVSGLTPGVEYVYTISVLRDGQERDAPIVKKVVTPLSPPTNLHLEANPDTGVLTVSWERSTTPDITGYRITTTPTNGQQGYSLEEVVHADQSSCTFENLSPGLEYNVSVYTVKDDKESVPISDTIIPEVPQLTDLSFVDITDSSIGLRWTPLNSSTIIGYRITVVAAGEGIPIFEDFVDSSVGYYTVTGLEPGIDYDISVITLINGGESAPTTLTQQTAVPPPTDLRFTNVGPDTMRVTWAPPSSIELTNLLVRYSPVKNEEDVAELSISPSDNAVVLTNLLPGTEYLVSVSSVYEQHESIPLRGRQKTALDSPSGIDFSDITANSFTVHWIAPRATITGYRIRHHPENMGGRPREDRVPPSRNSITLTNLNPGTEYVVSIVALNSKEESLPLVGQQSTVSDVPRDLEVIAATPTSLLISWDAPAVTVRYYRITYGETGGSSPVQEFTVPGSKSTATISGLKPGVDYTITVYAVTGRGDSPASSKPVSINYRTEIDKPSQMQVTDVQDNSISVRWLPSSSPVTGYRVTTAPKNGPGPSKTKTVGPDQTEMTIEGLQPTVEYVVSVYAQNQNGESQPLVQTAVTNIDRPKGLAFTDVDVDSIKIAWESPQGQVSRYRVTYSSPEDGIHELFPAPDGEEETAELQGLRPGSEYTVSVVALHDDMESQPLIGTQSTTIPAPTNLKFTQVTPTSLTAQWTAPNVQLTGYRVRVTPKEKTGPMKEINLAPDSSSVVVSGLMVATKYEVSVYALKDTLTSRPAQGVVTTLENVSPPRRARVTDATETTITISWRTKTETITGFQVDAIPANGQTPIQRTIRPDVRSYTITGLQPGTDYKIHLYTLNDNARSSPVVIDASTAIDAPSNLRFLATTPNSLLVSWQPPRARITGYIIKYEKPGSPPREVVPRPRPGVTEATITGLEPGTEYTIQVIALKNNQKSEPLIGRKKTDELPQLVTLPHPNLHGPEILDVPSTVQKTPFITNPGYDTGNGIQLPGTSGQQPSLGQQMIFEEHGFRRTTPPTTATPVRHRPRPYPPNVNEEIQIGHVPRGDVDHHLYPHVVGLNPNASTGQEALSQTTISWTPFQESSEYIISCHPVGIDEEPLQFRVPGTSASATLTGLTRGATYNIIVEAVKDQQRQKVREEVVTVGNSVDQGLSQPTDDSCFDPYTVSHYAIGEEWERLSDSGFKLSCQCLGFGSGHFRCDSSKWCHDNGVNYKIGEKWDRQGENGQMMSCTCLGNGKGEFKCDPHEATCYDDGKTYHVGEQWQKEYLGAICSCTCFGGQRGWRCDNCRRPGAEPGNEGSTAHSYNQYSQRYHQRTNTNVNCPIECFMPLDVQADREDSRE

dissociation rate Kd, inner barrier: 70 s⁻¹
dissociation rate Kd, outer barrier: 0.18 s⁻¹
Substance: Recombinant human α5β1-integrin (from UniProt P08648 42-1049; P05556 21-728) (receptor)
